Biological target: T1, SEC-purified human FcRn-HPC4 (human, UniProt P55899 24-297; P61769 21-119)
T1 construct: Immobilized on a CM5 chip by amine coupling; also called human FcRn receptor; not shown: HPC4 tag
Assay: Biacore SPR; antibody at 200, 50 and 10nM over immobilized FcRn

binding result | Binder
binds | Anti-CD-52 2C3 A114N mutant antibody (antibody, human IgG1, kappa, additional N-linked glycan at the engineered Asn 114 (Kabat), Full-length IgG1; mutated heavy chain with the WT 2C3 light chain) heavy: not shown light: DIVMTQTPLSLSVTPGQPASISCKSSQSLLYSNGKTYLNWLLQKPGQSPQRLIYLVSKLDSGVPDRFSGSGSGTDFTLKISRVEAEDVGVYYCVQGTHLHTFGQGTRLEIKRTVAAPSVFIFPPSDEQLKSGTASVVCLLNNFYPREAKVQWKVDNALQSGNSQESVTEQDSKDSTYSLSSTLTLSKADYEKHKVYACEVTHQGLSSPVTKSFNRGEC
binds | Anti-CD-52 2C3 NGT mutant antibody (antibody, human IgG1, kappa, Full-length IgG1; NGT added to the C-terminus of the heavy chain; WT 2C3 light chain; also called Add NGT to C-terminal) heavy: not shown light: DIVMTQTPLSLSVTPGQPASISCKSSQSLLYSNGKTYLNWLLQKPGQSPQRLIYLVSKLDSGVPDRFSGSGSGTDFTLKISRVEAEDVGVYYCVQGTHLHTFGQGTRLEIKRTVAAPSVFIFPPSDEQLKSGTASVVCLLNNFYPREAKVQWKVDNALQSGNSQESVTEQDSKDSTYSLSSTLTLSKADYEKHKVYACEVTHQGLSSPVTKSFNRGEC
binds | Anti-CD-52 2C3 S442N mutant antibody (antibody, IgG1, Full-length IgG1; mutated heavy chain with the WT 2C3 light chain) heavy: not shown light: DIVMTQTPLSLSVTPGQPASISCKSSQSLLYSNGKTYLNWLLQKPGQSPQRLIYLVSKLDSGVPDRFSGSGSGTDFTLKISRVEAEDVGVYYCVQGTHLHTFGQGTRLEIKRTVAAPSVFIFPPSDEQLKSGTASVVCLLNNFYPREAKVQWKVDNALQSGNSQESVTEQDSKDSTYSLSSTLTLSKADYEKHKVYACEVTHQGLSSPVTKSFNRGEC
binds | Anti-CD-52 2C3 S298N/Y300S mutant antibody (antibody, human IgG1, kappa, Full-length IgG1; also called S298N/Y300S 2C3 variant; S298/Y300S) heavy: not shown light: DIVMTQTPLSLSVTPGQPASISCKSSQSLLYSNGKTYLNWLLQKPGQSPQRLIYLVSKLDSGVPDRFSGSGSGTDFTLKISRVEAEDVGVYYCVQGTHLHTFGQGTRLEIKRTVAAPSVFIFPPSDEQLKSGTASVVCLLNNFYPREAKVQWKVDNALQSGNSQESVTEQDSKDSTYSLSSTLTLSKADYEKHKVYACEVTHQGLSSPVTKSFNRGEC
binds | Anti-CD-52 2C3 S440N mutant antibody (antibody, IgG1, Full-length IgG1; mutated heavy chain with the WT 2C3 light chain) heavy: not shown light: DIVMTQTPLSLSVTPGQPASISCKSSQSLLYSNGKTYLNWLLQKPGQSPQRLIYLVSKLDSGVPDRFSGSGSGTDFTLKISRVEAEDVGVYYCVQGTHLHTFGQGTRLEIKRTVAAPSVFIFPPSDEQLKSGTASVVCLLNNFYPREAKVQWKVDNALQSGNSQESVTEQDSKDSTYSLSSTLTLSKADYEKHKVYACEVTHQGLSSPVTKSFNRGEC
